The Km is the substrate concentration at which the rate is half of its maximum. What is called Vmax is the rate approached at saturating substrate. In general, kcat refers to the number of substrate molecules converted per active site and unit of time at saturation. What is called kcat/Km is the turnover number divided by the Michaelis constant.

We go through one substance from article PMC6130943, “Cytochrome P450 and O-methyltransferase catalyze the final steps in the biosynthesis of the anti-addictive alkaloid ibogaine from Tabernanthe iboga” (The Journal of Biological Chemistry, 2018).

For the series, the system named is CC[C@H]1C[C@@H]2C[C@H]3c4[nH]c5ccc(O)cc5c4CCN(C2)[C@@H]13. Put plainly: HPLC-MS of ibogaine formation, Michaelis-Menten fit. It is filed as biochemical, Tabernanthe iboga. The conditions noted are these: SAM, HEPES, pH 9 (relative-rate assays adjusted to optimum), 30 °C, 25 min. The source says: HPLC-MS of ibogaine formation, Michaelis-Menten fit on N10OMT (noribogaine-10-O-methyltransferase; OMT candidate 1)

For the substance “N10OMT (noribogaine-10-O-methyltransferase; OMT candidate 1) (Tabernanthe iboga)”, the Km stood at 73.6 ± 28.5 µM, the Vmax came to 0.00084 µmol/min/mg, the turnover number (kcat) is 0.000548 ± 7.23e-05 s⁻¹ and the kcat/Km came out at 7.45 ± 3.05 M⁻¹ s⁻¹.
